Consider four molecules from PMC2770665.

One data set deals with T1, EcoRII-N (His-tagged) (UniProt P14633 1-180).
T1 sequence: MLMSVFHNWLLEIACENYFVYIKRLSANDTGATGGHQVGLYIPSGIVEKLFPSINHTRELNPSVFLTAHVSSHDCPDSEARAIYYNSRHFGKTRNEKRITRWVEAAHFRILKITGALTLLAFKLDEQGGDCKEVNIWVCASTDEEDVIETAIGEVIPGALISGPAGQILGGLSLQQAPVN
Briefly: EMSA. In general terms: Mobility shift assays separate free from complexed probe on a gel.

The target in a further data set is T2, EcoRII-C (UniProt P14633 183-404).
T2 sequence: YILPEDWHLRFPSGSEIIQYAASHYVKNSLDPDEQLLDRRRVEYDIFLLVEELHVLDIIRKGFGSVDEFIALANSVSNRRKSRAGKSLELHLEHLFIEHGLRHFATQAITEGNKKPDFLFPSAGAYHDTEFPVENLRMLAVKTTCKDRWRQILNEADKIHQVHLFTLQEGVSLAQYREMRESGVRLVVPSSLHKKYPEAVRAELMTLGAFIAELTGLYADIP
Kind of data set: EMSA.

B1: T/2 25-mer (dsDNA)
DNA 1: CGCACGACTTCCTGGAAGAGCACGC
DNA 2: GCGTGCTCTTCCAGGAAGTCGTGCG
modifications: strand 2 position 13 is 2-aminopurine (written A) replacing central A
Consider B1, for which the binding result with EcoRII-N (His-tagged) is given as “no binding”.

B2: DM 16-mer (dsDNA)
DNA 1: CGTAGCCTGGTCGATC
DNA 2: GATCGACCAGGCTACG
modifications: 5-methylcytosine at strand 1 position 7 and strand 2 position 8
For B2, the binding result with EcoRII-C is recorded as “no binding”.

B3: HM(T) 16-mer (dsDNA)
DNA 1: CGTAGCCTGGTCGATC
DNA 2: GATCGACCAGGCTACG
modifications: 5-methylcytosine at strand 1 position 7 (second C of CCTGG)
With B3, the binding result with EcoRII-N (His-tagged) is “no binding”.

B4: HM(A) 16-mer (dsDNA)
DNA 1: CGTAGCCTGGTCGATC
DNA 2: GATCGACCAGGCTACG
modifications: 5-methylcytosine at strand 2 position 8 (second C of CCAGG)
Take B4: the binding result with EcoRII-N (His-tagged) is “no binding”.
